Assay [1] has as its target T1, laminin-521 (human, UniProt O15230 36-3695; P55268 33-1798; P11047 34-1609).
T1 construct: Full-length recombinant human laminin isoform (BioLamina); chains read from the isoform name
The assay is described as follows: SPR, laminin-521 immobilised, GF flowed, Langmuir fit. As to the method: (§1) A450 nm represents absorbance at 450 nm. BSA-coated wells served as negative controls (n=4, mean±SEM). Signals greater than 0.1 (grey box) are considered to be significant. […] Experimental curves were fitted with Langmuir binding kinetics.
(§2) The obtained binding curves were fitted with Langmuir binding kinetics to calculate specific dissociation constants (KD) (FIG. 1B).
(§3) SPR analysis was performed as described previously². In brief, measurements were made with a Biacore 3000 SPR system (GE Healthcare). […] VEGF-A165, PDGF-BB, or PlGF-2 was flowed at increasing concentrations in the running buffer at 20 μL/min. The sensor chip was regenerated with 50 mM NaOH for every cycle. Specific bindings of GFs to laminin were calculated by comparison to a non-functionalized channel used as a reference. Experimental results were fitted with Langmuir binding kinetics using BIAevaluation software (GE Healthcare).
For orientation: In SPR one partner is held on a chip, and binding of the other changes the refractive index at the surface.

For assay [2], the target named is T2, recombinant human vWF A2 domain (human, UniProt P04275 1498-1665).
T2 construct: domain: A2
Briefly: ELISA, domain coated 50 nM. How it is done:
(§4) ELISA was performed as previously reported1. […] After blocking with 2% BSA solution containing PBS-T, 1 μg/mL of recombinant human VEGF-A121 (PeproTech), recombinant human VEGF-A145 (R & D Systems), or recombinant human VEGF-A165 (PeproTech) was added. Bound VEGF-A was detected with 1 μg/mL of mouse anti-human VEGF-A antibody (clone: 26503, R & D systems). After 60 min of incubation, horseradish peroxidase (HRP) conjugated goat anti-mouse antibody (1:2000 dilution, Dako) was added and incubated for another 60 min. Color development and the absorbance measurement were done as described above.
For orientation: An ELISA detects its analyte on a solid surface through an enzyme-linked reagent.

Assay [3] has as its target T3, recombinant human vWF A3 domain (human, UniProt P04275 1683-1874).
T3 construct: domain: A3
The assay is described as follows: ELISA, domain coated 50 nM. As to the method:
as §4

Assay [4] concerns the target T4, human plasma-derived vWF (human, UniProt P04275 764-2813).
T4 construct: mature; also called plasma-derived purified vWF; von Willebrand factor
The assay is described as follows: SPR; plasma-derived vWF immobilised (~2000 RU), VEGF-A165 flowed at 6.25-100 nM; 1:1 Langmuir fit [panel C]. How it is done: (§5) A450 nm represents absorbance at 450 nm. Signals from VEGF-A121 served as a baseline, and bovine serum albumin (BSA) served as a negative control (n=4, mean±SD). […] Experimental curves were fitted with (C) 1:1 Langmuir fit model and (D) heterogeneous ligand-parallel reactions binding.
(§6) SPR assays were performed as described previously2. In brief, measurements were made with a Biacore X100 SPR system or Biacore 3000 SPR system (GE Healthcare). […] Recombinant human VEGF-A165, VEGF-A121, or PDGF-BB was flowed at increasing concentrations in the running buffer at 30 μL/min. The sensor chip was regenerated with glycine at pH 2 for every cycle.

The target of assay [5] is T1, laminin-521. The assay is described as follows: SPR; laminin-521 immobilised on the chip (~2000 RU), VEGF-A165 flowed at 10-100 nM; Langmuir fit. How it is done:
as §1, §2, §3

Assay [6] deals with T5, recombinant laminin α3 2928-3150 protein (linker domain and LG4 domain) (human, UniProt Q16787 2928-3150).
T5 construct: range 2928-3150; Made in HEK-293F cells; also called laminin alpha 3 LG domain recombinant protein
T5 sequence: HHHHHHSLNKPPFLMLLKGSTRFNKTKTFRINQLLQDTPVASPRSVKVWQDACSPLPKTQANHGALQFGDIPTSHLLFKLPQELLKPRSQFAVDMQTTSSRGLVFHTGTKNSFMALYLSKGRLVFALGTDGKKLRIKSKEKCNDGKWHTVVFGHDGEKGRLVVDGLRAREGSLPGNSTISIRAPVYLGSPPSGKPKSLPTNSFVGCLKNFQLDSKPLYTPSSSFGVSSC
The assay is described as follows: SPR, α3 2928-3150 immobilised, GF flowed, Langmuir fit. As to the method: Affinity of GFs against recombinant laminin LG domains. ELISA plates were coated with 1 μg/mL (A) α3₂₉₂₈₋₃₁₅₀, (B) α4₈₂₆₋₁₈₁₆, or (C) α5₃₀₂₆₋₃₄₈₂ and further incubated with 1 μg/mL of VEGF-A165, VEGF-A121, PlGF-2, PlGF-1, PDGF-BB, or FGF-2 solution. Bound GFs were detected using a specific antibody for each GF (n=4, mean±SEM). Statistical analyses were done using the Mann-Whitney U test by comparing the signals obtained from the laminin domain- and the BSA-coated wells. *p<0.05, **p<0.01. […] A SPR chip was functionalized with the laminin α3₂₉₂₈₋₃₁₅₀ recombinant protein (˜1000 RU), and each GF was flowed over the chip at indicated concentrations. Curves represent the specific responses (in RU) to laminin. Experimental curves were fitted with Langmuir binding kinetics.
Because the GFs that bound to laminins have also been previously reported to bind to other ECM glycoproteins through HBDs, it was hypothesized that HBDs of laminins might be responsible for the interactions between GFs and laminin. To address this hypothesis, ELISA assays were repeated for VEGF-A165, PlGF-2 or FGF-2 in the presence of heparin added in excess (10 μM). […] To further confirm this, the inventors tested direct GF binding to the LG domains from human laminin α3, α4 and α5, within which HBDs of laminin were localized.
SPR analysis was performed as described previously². […]

Assay [7] has as its target T4, human plasma-derived vWF. Briefly: SPR, vWF immobilised, GF flowed, 1:1 Langmuir fit. As to the method:
as §5, §6

B1: vascular endothelial growth factor (VEGF)-A165 (ligand, human, UniProt P15692-4 27-191, looked up)
chain: APMAEGGGQNHHEVVKFMDVYQRSYCHPIETLVDIFQEYPDEIEYIFKPSCVPLMRCGGCCNDEGLECVPTEESNITMQIMRIKPHQGQHIGEMSFLQHNKCECRPKKDRARQENPCGPCSERRKHLFVQDPQTCKCSCKNTDSRCKARQLELNERTCRCDKPRR
notes: mature; Purchased in mature form, not glycosylated
By Kd is commonly meant the constant that tells how readily two partners part at equilibrium. What is called koff is a measure of how fast the partners let go of each other. Low readings indicate slow dissociation, high ones fast dissociation. For orientation: kon means a measure of how fast the partners come together. As to B1, the Kd was determined as 5.8 nM with laminin-521 [1]; 27.4 nM with human plasma-derived vWF [4]; 5.78 nM in the assay with laminin-521 [5]; 1.2 nM in assay [6]; 27 nM with human plasma-derived vWF [7]. For the same molecule, the binding result in assay [2] and in assay [3] was “no binding (tested: 1 µg/mL)” in each case. This molecule had a koff with laminin-521 [5] of 0.00324 s⁻¹. The molecule also returned a kon with laminin-521 [5] of 561000 M⁻¹ s⁻¹.

For the origin of these results see patent publication US20240092867A1 (UNIVERSITY OF CHICAGO, published 2024).
